Laboratory results taken from patent publication US20220204649A1 (SYSMEX, published 2022).

biological target: T1, HER2 (UniProt P04626 23-652, limits assumed); test: SPR (Biacore 8K), Example 3, as in Example 1
T1 construct: also called antigen of the anti-HER2 antibody
Description: (§1) Affinity of the prepared variants was measured using Biacore (registered trademark) 8K (GE Healthcare) in the same manner as in Example 1.

Row | Kd [nM] | Binder
1 | 0.0321 | 72, 77, 79 variant of humanized anti-HER2 antibody (Fab) (Fab, V domains shown, also called Heavy chain 72, 77, 79 variant) VH: EVQLVESGGGLVQPGGSLRLSCAASGFNIKDTYIHWVRQAPGKGLEWVARIYPTNGYTRYADSVKGRFTISARTSKNRARLQMNSLRAEDTAVYYCSRWGGDGFYAMDYWGQGTLVTVSS VL: not shown
2 | 0.0126 | light chain 63, 65, 67/heavy chain 72, 77, 79 variant of the anti-HER2 antibody (Fab, V domains shown) VH: EVQLVESGGGLVQPGGSLRLSCAASGFNIKDTYIHWVRQAPGKGLEWVARIYPTNGYTRYADSVKGRFTISARTSKNRARLQMNSLRAEDTAVYYCSRWGGDGFYAMDYWGQGTLVTVSS VL: DIQMTQSPSSLSASVGDRVTITCRASQDVNTAVAWYQQKPGKAPKLLIYSASFLYSGVPSRFRGRRRGTDFTLTISSLQPEDFATYYCQQHYTTPPTFGQGTKVEIKR
3 | 0.0357 | light chain 63, 65, 67/heavy chain 82B, 83, 84 variant of the anti-HER2 antibody (Fab, V domains shown) VH: not shown VL: DIQMTQSPSSLSASVGDRVTITCRASQDVNTAVAWYQQKPGKAPKLLIYSASFLYSGVPSRFRGRRRGTDFTLTISSLQPEDFATYYCQQHYTTPPTFGQGTKVEIKR

biological target: T1, HER2; test: SPR (Biacore 8K), as in Example 1
Description: as §1

Row | Binder | Kd [nM]
4 | 68, 70, 72 variant of humanized anti-HER2 antibody (Fab) (Fab, V domains shown) VH: EVQLVESGGGLVQPGGSLRLSCAASGFNIKDTYIHWVRQAPGKGLEWVARIYPTNGYTRYADSVKGRFRIRARTSKNTAYLQMNSLRAEDTAVYYCSRWGGDGFYAMDYWGQGTLVTVSS VL: not shown | 0.0208
5 | 74, 75, 77 variant of humanized anti-HER2 antibody (Fab) (Fab, V domains shown) VH: EVQLVESGGGLVQPGGSLRLSCAASGFNIKDTYIHWVRQAPGKGLEWVARIYPTNGYTRYADSVKGRFTISADTRRNRAYLQMNSLRAEDTAVYYCSRWGGDGFYAMDYWGQGTLVTVSS VL: not shown | 0.0443
6 | 72, 77, 79 variant of humanized anti-HER2 antibody (Fab) (Fab, V domains shown, also called Heavy chain 72, 77, 79 variant) VH: EVQLVESGGGLVQPGGSLRLSCAASGFNIKDTYIHWVRQAPGKGLEWVARIYPTNGYTRYADSVKGRFTISARTSKNRARLQMNSLRAEDTAVYYCSRWGGDGFYAMDYWGQGTLVTVSS VL: not shown | 0.00505

Results, then the binder that gave them:

Row | Kd [nM] | Binder
7 | 0.0211 | 84, 85, 87 variant of humanized anti-HER2 antibody (Fab) (Fab, V domains shown) VH: EVQLVESGGGLVQPGGSLRLSCAASGFNIKDTYIHWVRQAPGKGLEWVARIYPTNGYTRYADSVKGRFTISADTSKNTAYLQMNSLRRRDRAVYYCSRWGGDGFYAMDYWGQGTLVTVSS VL: not shown
8 | 0.0338 | 79, 81, 82A variant of humanized anti-HER2 antibody (Fab) (Fab, V domains shown) VH: EVQLVESGGGLVQPGGSLRLSCAASGFNIKDTYIHWVRQAPGKGLEWVARIYPTNGYTRYADSVKGRFTISADTSKNTARLRMRSLRAEDTAVYYCSRWGGDGFYAMDYWGQGTLVTVSS VL: not shown
